Several values for one entry are separate records, joined by “and”; a condition that tells them apart may be missing. Equal values may be shown once.
Columns and labels:
[1] = target: RGS-Z fused to the Gal4 activation domain (RGS-Z-pACT2) (yeast; human) (UniProt O76081); experiment: cell-based or functional assay
KDR = KDR (Homo sapiens, UniProt P35968)
[2] = target: T1, KChIP1 fused to the Gal4 activation domain (hKChIP1-pACT2) (yeast; human, UniProt Q9NZI2-2 1-216, limits assumed); experiment: cell-based or functional assay
T1 sequence (looked up): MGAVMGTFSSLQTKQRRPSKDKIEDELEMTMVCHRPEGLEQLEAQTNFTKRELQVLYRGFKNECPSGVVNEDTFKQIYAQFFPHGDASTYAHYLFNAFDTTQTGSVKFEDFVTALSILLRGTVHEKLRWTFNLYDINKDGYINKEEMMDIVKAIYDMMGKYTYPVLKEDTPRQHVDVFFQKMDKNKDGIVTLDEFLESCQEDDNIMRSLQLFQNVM

[3] = target: T2, extracellular domain of rat growth hormone receptor (GHR, amino acids 1-247) fused to the Gal4 DNA binding … (yeast; rat, UniProt P04386 1-147; P16310 19-265); experiment: yeast two-hybrid, HIS3 growth on selective medium (strain CY722)
T2 construct: Expressed inside yeast (two-hybrid); also called GHR fusion; GHR-GAL4 fusion; not shown: polylinker residues of pAS2; not described

[4] = target: T2, extracellular domain of rat growth …; experiment: in vivo competition in yeast two-hybrid, free GH from pCUP (strain CY781)
[5] = target: T3, GH and GHR fusion proteins (Rattus norvegicus, UniProt P16310); experiment: Yeast two-hybrid competition assay: free peptide co-expressed with GH and GHR fusion proteins, growth on selective medium; type: cell-based; set-up: key to Growth: +: scored for cell growth, indicated by a plus; details: for Effect of co-expressed free peptide on GH-GHR-dependent cell growth on selective medium: free peptide expressed from pCUP in a strain with GH and GHR fusions
T3 construct: encoding amino acids 1-247 of the rat GHR (Baumbach et al., 1989); expressed in transfected cells; host or cells: Saccharomyces cerevisiae CY770 (URA- derivative of Y190)
T3 sequence (P16310 19-265): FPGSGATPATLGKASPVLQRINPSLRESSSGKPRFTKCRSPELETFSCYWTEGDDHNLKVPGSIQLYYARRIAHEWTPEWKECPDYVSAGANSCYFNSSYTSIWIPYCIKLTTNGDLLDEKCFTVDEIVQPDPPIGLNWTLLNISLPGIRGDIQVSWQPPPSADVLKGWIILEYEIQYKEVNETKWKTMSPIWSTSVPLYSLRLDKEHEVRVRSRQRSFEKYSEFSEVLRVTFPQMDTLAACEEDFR

[6] = target: T4, PRL and PRLR fusion proteins (Sus scrofa, UniProt Q6JTA8, M232L/S231T); experiment: Yeast two-hybrid competition assay: free peptide co-expressed with PRL and PRLR fusion proteins, growth on selective medium; type: cell-based, porcine; details: free peptide expressed from pCUP in a strain with PRL and PRLR fusions
T4 construct: flank the extracellular domain of the PRLR, encoding amino acids 1-229; expressed in transfected cells; host or cells: Saccharomyces cerevisiae (URA- derivative of Y190; strains CY786/CY787)
T4 sequence (Q6JTA8 with tags, fused parts or gaps): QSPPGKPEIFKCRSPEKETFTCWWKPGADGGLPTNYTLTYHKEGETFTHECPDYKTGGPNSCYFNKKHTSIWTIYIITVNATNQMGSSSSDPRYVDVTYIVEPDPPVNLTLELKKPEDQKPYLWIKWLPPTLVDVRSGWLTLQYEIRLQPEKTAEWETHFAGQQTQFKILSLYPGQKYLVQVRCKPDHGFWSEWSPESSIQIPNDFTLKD
Description: To expand and validate this technology, a similar system was developed using the peptide hormone prolactin (PRL) and its receptor. Prolactin is structurally related to GH and the prolactin receptor (PRLR) is also a member of the cytokine receptor superfamily. […] Mature porcine PRL is generated as a fusion to the GAL4 activation domain. Oligonucleotides are designed to pig PRL (obtained from GenBank; […] No. X14068), and used to generate the mature pig PRL protein hormone from a pig pituitary lambda gt11 library, using standard PCR methods. A 31 base 5' oligonucleotide includes an EcoRI site ([NT] ID NO: 7) and corresponds to sequences encoding amino acids 1-7. A 30 base 3' oligonucleotide contains an EcoRI site ([NT] ID NO: 8) and corresponds to a region of cDNA 3' to the endogenous termination codon. A 600 bp fragment is obtained, ligated into vector pCR 11, and confirmed by restriction enzyme digest and sequence analysis. The PRL cDNA is cloned into pACT-II via the EcoRI site. The extracellular domain of the porcine PRL receptor (PRLR) is generated as a fusion to GAL4 DNA binding domain. Oligonucleotides are designed based on sequence of the mouse PRLR (Davis and Linzer, 1989) A 31 base 5' oligonucleotide contains a […] ID NO: 9) while the 31 base 3' oligonucleotide contains a termination codon followed by a […] ID NO: 10). […]

Chain of KDR (P35968 20-764 limits assumed): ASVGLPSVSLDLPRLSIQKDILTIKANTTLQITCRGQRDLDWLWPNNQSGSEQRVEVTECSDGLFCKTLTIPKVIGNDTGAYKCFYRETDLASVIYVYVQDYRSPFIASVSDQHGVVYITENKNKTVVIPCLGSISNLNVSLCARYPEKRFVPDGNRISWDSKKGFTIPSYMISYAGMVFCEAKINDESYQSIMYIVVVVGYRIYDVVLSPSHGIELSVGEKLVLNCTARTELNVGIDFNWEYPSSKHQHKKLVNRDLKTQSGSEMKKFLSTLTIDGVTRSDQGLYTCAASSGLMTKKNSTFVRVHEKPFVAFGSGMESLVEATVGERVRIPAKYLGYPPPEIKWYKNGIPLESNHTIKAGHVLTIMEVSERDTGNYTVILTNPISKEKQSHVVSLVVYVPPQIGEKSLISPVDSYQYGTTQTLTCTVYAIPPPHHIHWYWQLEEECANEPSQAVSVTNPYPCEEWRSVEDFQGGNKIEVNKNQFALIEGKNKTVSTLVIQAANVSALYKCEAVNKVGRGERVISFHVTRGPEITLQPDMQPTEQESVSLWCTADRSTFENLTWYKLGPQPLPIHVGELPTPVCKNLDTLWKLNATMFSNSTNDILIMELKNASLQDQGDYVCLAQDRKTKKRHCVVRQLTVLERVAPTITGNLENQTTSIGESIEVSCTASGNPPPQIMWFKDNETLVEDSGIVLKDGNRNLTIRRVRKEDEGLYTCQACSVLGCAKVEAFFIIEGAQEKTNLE
Chain of KDR (P35968 20-764 limits assumed): as above

constitutively active G-alphaZ Q205L fused to the Gal4 DNA binding domain (Q205L/GaZ-pGBKT7) (from UniProt P04386 1-147; P19086 1-355)
firefly luciferase activity, ybn66L in a 75:25 mix with ybn77L (OD 0.25 and 0.15) (luminescence units) [1]: 950000 | increase in Renilla luciferase activity, strain ybn70L [1]: 40 fold | induction of luciferase activity, interaction strain (ybn66L) against control strains [1]: 5 fold and 10 fold

VEGF
Growth on selective media of strain expressing two KDR receptor fusion proteins plus free ligand (KDR): substantial growth on selective media

B1: N-terminus of the potassium channel 4.3 (hKv4.3N) fused to the Gal4 DNA binding domain (hKv4.3N-pGBT9) (other, yeast;human, UniProt P04386 1-147, looked up)
chain: MKLLSSIEQACDICRLKKLKCSKEKPKCAKCLKNNWECRYSPKTKRSPLTRAHLTEVESRLERLEQLFLLIFPREDLDMILKMDSLQDIKALLTGLFVQDNVNKDAVTDRLASVETDMPLTLRQHRISATSSSEESSNKGQRQLTVSMAAGVAAWLPFARAAAIGWMPVANCPMPLAPADKNKRQDELIVLNVSGRRFQTWRTTLERYPDTLLGSTEKEFFFNEDTKEYFFDRDPEVFRCVLNFYRTGKLHYPRYECISAYDDELAFYGILPEIIGDCCYEEYKDRKRENAERLMDDNDSENNQESMPSLSFRQTMWRAFENPHTST
increase in Renilla luciferase activity, strain ybn77L [2]: 25 fold | increase in luciferase activity (Gal1/10-luciferase reporter), both fusions against one fusion plus empty vector [2]: 30 fold | increase in luciferase activity (low copy CEN Gal-luciferase reporter Kp132), test strain against negative control strain [2]: 100 fold

B2: porcine growth hormone (GH) fused to the Gal4 activation domain (GH in pACT-II) (ligand, UniProt P01248 27-216, looked up, not shown: large carriers; small tags and cut ends)
chain: FPAMPLSSLFANAVLRAQHLHQLAADTYKEFERAYIPEGQRYSIQNAQAAFCFSETIPAPTGKDEAQQRSDVELLRFSLLLIQSWLGPVQFLSRVFTNSLVFGTSDRVYEKLKDLEEGIQALMRELEDGSPRAGQILKQTYDKFDTNLRSDDALLKNYGLLSCFKKDLHKAETYLRVMKCRRFVESSCAF
notes: mature; Expressed inside yeast (two-hybrid); also called GH-Gal4 fusion protein; GH fusion
binding result [3]: binds

B3: free porcine growth hormone expressed from pCUP (GH-pCUP) (ligand, UniProt P01248 27-216, looked up)
chain: B2 chain
notes: mature; Non-fusion GH; also called free GH; free ligand
binding result [4]: binds

B4: GH: mature porcine growth hormone expressed as free ligand from pCUP plasmid (protein, UniProt P01248 27-216, looked up)
Somatotropin: B2 chain
Effect of co-expressed free peptide on GH-GHR-dependent cell growth on selective medium [5]: block GH-GHR-dependent cell growth on selective medium

B5: PRL: mature porcine prolactin expressed as free peptide from pCUP plasmid (protein)
chain: LPICPSGAVNCQVSLRDLFDRAVILSHYIHNLSSEMFNEFDKRYAQGRGFITKAINSCHTSSLSTPEDKEQAQQIHHEVLLNLILRVLRSWNDPLYHLVTEVRGMQEAPDAILSRAIEIEEQNKRLLEGMEKIVGQVHPGIKENEVYSVWSGLPSLQMADEDTRLFAFYNLLHCLRRDSHKIDNYLKLLKCRIIYDSNC
modifications: left off: large carriers; small tags and cut ends
notes: mature porcine prolactin expressed as free peptide from pCUP plasmid
Effect of co-expressed free peptide on PRL-PRLR-dependent cell growth on selective medium [6]: growth is abrogated | Effect of co-expressed free peptide on GH-GHR-dependent cell growth on selective medium [5]: grows on selective medium | Growth ([5]; strain with GH and GHR fusions plus free peptide expressed from pCUP, selective medium, 3 to 5 days at 30 C): +

From patent US6770446B1, “Cell systems having specific interaction of peptide binding pairs” (Wyeth, priority 1994, dated 2004)
